Tests used:
[1] = tested on: OVA-specific T cell hybridoma D011; assay: T cell activation: BMDC co-culture with OVA-specific reporter T cell hybridoma D011 (GFP); assay type: cell-based, mice; conditions: BMDC 24 hours with OVA treatments, D011 T cells 24 hours; mean±standard error (n=3)
Description: Bone marrow was extracted from adult BALB/c mice. Mice were euthanized and femur and humerus bones removed and cleaned of tissue. Bones were kept in RPMI in a sterile petri dish, and bone marrow was flushed from bones using RPMI and a 1 mL insulin syringe. Extracted bone marrow was filtered through a 100 μm nylon mesh filter and rinsed twice in RPMI. Bone marrow cells were then counted and plated at a density of 2×10^6 cells in culture medium (RPMI, 10% heat inactivated FBS, 1% penicillin/streptomycin). Granulocyte-macrophage colony stimulating factor (GM-CSF) and Interleukin-4 (IL-4) were added to the culture medium at 40 ng/mL and 20 ng/mL, respectively. Cells were incubated at 37° C. and medium with GM-CSF and IL-4 was replenished after 3 days. On day 6, non-adherent and loosely-adherent cells were harvested by pipetting and re-suspended in culture media.
10 μL of OPSS-liposomes containing OVA, control-liposomes containing OVA and free OVA matching the amount encapsulated in OPSS-liposomes (see liposome preparation) were incubated in 10 μL C3-positive and -negative serum for 1 hour at room temperature prior to addition to 80 μL of bone marrow-derived dendritic cells in RPMI (1% penicillin/streptomycin) containing 1.6×10^5 cells per well in a U-bottom plate. […] The co-cultures were then analyzed for T cell activation (GFP expression) by fluorescence microscopy and flow cytometry.

[2] = Liver toxicity assays (plasma AST, ALT); assay type: in vivo; conditions: A20-OVA mice, 4 days after last injection
Description: Mice were euthanized following therapy, 4 days after the last injection and blood was collected via cardiac puncture and placed in heparinized tubes. Plasma was separated from blood via centrifugation at 500×g for 15 minutes and frozen at −80° C. for subsequent analysis. Red blood cell lysis buffer (eBioscience) was added to the remaining blood for 10 minutes at room temperature. Samples were then prepared for flow cytometry analysis or frozen in culture media supplemented with 10% dimethyl sulfoxide for later use.
Mouse plasma levels of aspartate transaminase (AST) and alanine transaminase (ALT) were determined using kits purchased from BioAssay Systems (Hayward, Calif., USA). Plasma was collected from mice as previously described. Plasma samples were diluted 1:1 in assay buffer prior to addition to a Falcon flat-bottom microtest 96-well assay plate, black/clear bottom (Becton Dickinson Labware, Franklin Lakes, N.J., USA). Absorbance was measured at 340 nm at 5 and 10 minutes using a BioTek Synergy HT plate reader, and enzyme activity was calculated according to the protocol.

Molecule | T cell activation (GFP expression) [1] | ALT in mouse plasma ([2]; normal range 15-84 U/L) | AST in mouse plasma ([2]; normal range 54-298 U/L)
ovalbumin [free OVA, Non-encapsulated ovalbumin, model tumor antigen, matched to the encapsulated amount] | 14.4±0.8% | – | –
ovalbumin (protein, UniProt P01012 2-386, looked up, Non-encapsulated ovalbumin, model tumor antigen, matched to the encapsulated amount) Ovalbumin: GSIGAASMEFCFDVFKELKVHHANENIFYCPIAIMSALAMVYLGAKDSTRTQINKVVRFDKLPGFGDSIEAQCGTSVNVHSSLRDILNQITKPNDVYSFSLASRLYAEERYPILPEYLQCVKELYRGGLEPINFQTAADQARELINSWVESQTNGIIRNVLQPSSVDSQTAMVLVNAIVFKGLWEKAFKDEDTQAMPFRVTEQESKPVQMMYQIGLFRVASMASEKMKILELPFASGTMSMLVLLPDEVSGLEQLESIINFEKLTEWTSSNVMEERKIKVYLPRMKMEEKYNLTSVLMAMGITDVFSSSANLSGISSAESLKISQAVHAAHAEINEAGREVVGSAEAGVDAASVSEEFRADHPFLFCIKHIATNAVLFFGRCVSP | – | 51.2±34.7 U/L | 110.4±25.6 U/L

Reference: patent US20180280488A1, “Methods and Compositions for Binding Complement C3 for Targeting of Immune Cells” (University of Alaska Anchorage, priority 2017, published 2018)
